Data published in publication PMC12583524.

B1: C34 IgG (antibody, V domains shown)
VH: EVQLVESGGGLVQPGRSLRLSCAASGFTFDDYAMHWVRQAPGKGLEWVSGISWNSGSIGYADSVKGRFTISRDNAKNSLYLQMNSLRAEDTALYYCAKDMGYSGNDDYYGMDVWGQGTTVTVSS
VL: DIQLTQSPSSLSASVGDRVTITCRASQRISSYLNWYQQKPGKAPKLLIYGAFSLQSGVPSRFSGSGSGTDFTLTISSLQPEDFATYYCQQSYRTLTRTFGQGTKVEIK
B2: C34 Fab (papain digestion of the mAb) (Fab, V domains shown)
VH: B1 VH
VL: B1 VL
B3: C37 Fab (papain digestion of the mAb) (Fab, V domains shown)
VH: QVQLQESGPGLVKPSETLSLTCTVSGGSIGSSSYYWGWIRQPPGKGLQWIGSFHYSGTTYYNPSLKSRVTISVDTSKNHFSLKLSSVTAADTAVYYCASRQNWNDGYFDYWGQGTLVTVSS
VL: DIQMTQSPATLSLSPGERATLFCRASQSVSSSLAWYQQKPGQAPRLLIYDASNRATGIPARFSGSGSGTDFTLTISSLEPEDFAVYYCQQRGNWPPITFGQGTRLDTK
B4: C37 IgG (antibody, V domains shown)
VH: B3 VH
VL: B3 VL

Target: infectious CHIKV virion particle with E3 associated (strain CHIKV-181/25) (Chikungunya virus) (UniProt Q8JUX5)
Sequence (Q8JUX5 whole entry, looked up): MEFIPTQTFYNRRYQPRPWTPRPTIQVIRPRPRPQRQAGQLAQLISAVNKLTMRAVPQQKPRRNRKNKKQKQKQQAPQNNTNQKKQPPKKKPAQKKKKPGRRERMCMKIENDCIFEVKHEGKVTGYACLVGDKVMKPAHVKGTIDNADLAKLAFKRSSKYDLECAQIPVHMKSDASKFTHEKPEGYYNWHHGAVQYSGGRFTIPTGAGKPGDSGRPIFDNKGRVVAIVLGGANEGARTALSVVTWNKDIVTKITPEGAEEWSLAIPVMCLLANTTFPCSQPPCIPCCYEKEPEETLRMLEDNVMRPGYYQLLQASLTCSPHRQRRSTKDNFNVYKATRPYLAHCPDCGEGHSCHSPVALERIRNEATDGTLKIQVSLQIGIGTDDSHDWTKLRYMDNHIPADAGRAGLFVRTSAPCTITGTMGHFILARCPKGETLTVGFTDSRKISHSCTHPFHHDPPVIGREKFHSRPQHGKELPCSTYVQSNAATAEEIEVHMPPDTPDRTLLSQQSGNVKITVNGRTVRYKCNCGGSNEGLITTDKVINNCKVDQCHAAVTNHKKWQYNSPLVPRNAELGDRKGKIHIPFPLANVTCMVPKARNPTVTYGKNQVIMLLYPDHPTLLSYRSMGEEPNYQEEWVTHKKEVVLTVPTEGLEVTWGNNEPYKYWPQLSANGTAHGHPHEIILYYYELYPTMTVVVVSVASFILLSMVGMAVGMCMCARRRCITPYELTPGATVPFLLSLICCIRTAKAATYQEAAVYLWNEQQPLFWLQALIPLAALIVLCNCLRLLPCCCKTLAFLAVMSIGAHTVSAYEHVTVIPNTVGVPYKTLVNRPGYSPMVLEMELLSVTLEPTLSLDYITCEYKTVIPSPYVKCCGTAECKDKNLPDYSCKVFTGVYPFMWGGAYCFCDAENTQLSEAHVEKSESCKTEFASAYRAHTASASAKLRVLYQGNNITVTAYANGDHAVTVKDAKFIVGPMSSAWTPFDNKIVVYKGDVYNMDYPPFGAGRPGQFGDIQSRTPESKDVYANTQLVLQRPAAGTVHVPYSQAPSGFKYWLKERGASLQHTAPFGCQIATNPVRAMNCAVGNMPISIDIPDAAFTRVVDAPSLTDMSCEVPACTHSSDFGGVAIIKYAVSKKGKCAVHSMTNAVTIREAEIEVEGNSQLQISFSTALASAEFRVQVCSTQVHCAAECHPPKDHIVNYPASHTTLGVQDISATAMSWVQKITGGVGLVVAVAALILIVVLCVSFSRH

Binder | PRNT50, post-attachment neutralisation assay on Vero cells [ng/mL]
B1 | 48.7
B2 | 97
B3 | 727
B4 | 164
